Where two headings read alike, the source gives them in different places.

What all share (test): two-hybrid library CCmax;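 further: natural log of median RNA to DNA barcode read ratio; higher means stronger binding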
One assay addresses T1, P2-AA-12HGe-D.
T1 chain: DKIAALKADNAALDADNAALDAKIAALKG

In another assay the target is T2, P2-AA-12HGe-E.
T2 chain: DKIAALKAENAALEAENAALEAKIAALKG
As to conditions: mean of both orientations.

The next assay deals with T3, P2-AA-12HGe-W.
T3 chain: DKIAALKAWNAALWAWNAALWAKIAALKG
The conditions noted are these: mean of both orientations.

The target in another assay is T4, P2-AA-12HGe-Q.
T4 chain: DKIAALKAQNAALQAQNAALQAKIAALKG
As to conditions: mean of both orientations.

For another assay, the target named is T5, P2-AA.
T5 chain: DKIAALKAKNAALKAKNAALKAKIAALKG
As to conditions: mean of both orientations.

For a further assay, the target named is T6, P2-AA-12HGe-R.
T6 chain: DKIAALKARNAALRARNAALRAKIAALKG
The conditions noted are these: mean of both orientations.

A further assay has as its target T7, P2-AA-12HGe-T.
T7 chain: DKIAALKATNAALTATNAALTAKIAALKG
The conditions noted are these: mean of both orientations.

A further assay deals with T8, P2-AA-12HGe-S.
T8 chain: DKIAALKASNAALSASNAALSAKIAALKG

Another assay has as its target T9, P2-AA-12HGe-A.
T9 chain: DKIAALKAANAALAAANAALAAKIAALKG
The conditions noted are these: mean of both orientations.

For a further assay, the target named is T10, P2-AA-12HGe-H.
T10 chain: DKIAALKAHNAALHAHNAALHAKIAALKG
As to conditions: mean of both orientations.

The target in another assay is T11, P2-AA-12HGe-M.
T11 chain: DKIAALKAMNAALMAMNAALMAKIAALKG
As to conditions: mean of both orientations.

DEIAALEAWNAALWAWNAALWAEIAALEG [P1-AA-12HGe-W]: the interaction score with P2-AA-12HGe-D (mean of both orientations) is -1.76; with P2-AA-12HGe-E, 1.5; with P2-AA-12HGe-W, -0.0819; with P2-AA-12HGe-Q it was 1.69; with P2-AA, -1.08; with P2-AA-12HGe-R, 0.108. Also, the interaction score is -0.385 with P2-AA-12HGe-T; -0.243 with P2-AA-12HGe-S (mean of both orientations); 1.75 in the assay with P2-AA-12HGe-A; -1.02 with P2-AA-12HGe-H; 0.936 in the assay with P2-AA-12HGe-M.

With DEIAALEAMNAALMAMNAALMAEIAALEG [P1-AA-12HGe-M], the interaction score is -1.52 with P2-AA-12HGe-D (mean of both orientations); 2.2 with P2-AA-12HGe-E; 0.93 with P2-AA-12HGe-W; 2.16 with P2-AA-12HGe-Q; 1.39 in the assay with P2-AA; 1.45 in the assay with P2-AA-12HGe-R. The interaction score with P2-AA-12HGe-T came to 1.77; with P2-AA-12HGe-S (mean of both orientations), 1.02; with P2-AA-12HGe-A, 1.71; with P2-AA-12HGe-H it was 0.866; with P2-AA-12HGe-M, 1.82.

On to DEIAALEAQNAALQAQNAALQAEIAALEG [P1-AA-12HGe-Q], for which the interaction score is -1.92 with P2-AA-12HGe-D (mean of both orientations); 2.09 with P2-AA-12HGe-E; -0.264 with P2-AA-12HGe-W; 1.8 in the assay with P2-AA-12HGe-Q; 1.92 with P2-AA; 1.56 with P2-AA-12HGe-R. In addition, the interaction score with P2-AA-12HGe-T came to 1.03; with P2-AA-12HGe-S (mean of both orientations), 0.227; with P2-AA-12HGe-A, 1.99; with P2-AA-12HGe-H it was 0.459; in the assay with P2-AA-12HGe-M it was 1.64.

On to DEIAALEASNAALSASNAALSAEIAALEG [P1-AA-12HGe-S], for which the interaction score with P2-AA-12HGe-D is -1.82; with P2-AA-12HGe-E, 0.07; with P2-AA-12HGe-W, -1.58; with P2-AA-12HGe-Q it was 0.702; with P2-AA, 0.744; with P2-AA-12HGe-R it was 1. In addition, the interaction score was -1.11 with P2-AA-12HGe-T; -1.39 in the assay with P2-AA-12HGe-S (mean of both orientations); -0.678 in the assay with P2-AA-12HGe-A; -1.82 with P2-AA-12HGe-H; -0.332 in the assay with P2-AA-12HGe-M.

Turning to DEIAALEAYNAALYAYNAALYAEIAALEG [P1-AA-12HGe-Y], the interaction score in the assay with P2-AA-12HGe-D (mean of both orientations) is -1.65; with P2-AA-12HGe-E it was 2.36; with P2-AA-12HGe-W it was -0.349; in the assay with P2-AA-12HGe-Q it was 0.637; with P2-AA it was -0.194; in the assay with P2-AA-12HGe-R, -0.521. Further, the interaction score with P2-AA-12HGe-T is -0.661; with P2-AA-12HGe-S (mean of both orientations), -1.06; with P2-AA-12HGe-A it was -0.289; with P2-AA-12HGe-H, -1.21; with P2-AA-12HGe-M, 1.77.

On to DEIAALEARNAALRARNAALRAEIAALEG [P1-AA-12HGe-R], for which the interaction score with P2-AA-12HGe-D (mean of both orientations) was 1.05; with P2-AA-12HGe-E it was 2.08; with P2-AA-12HGe-W, -1.15; with P2-AA-12HGe-Q it was 1.28; in the assay with P2-AA it was -0.71; in the assay with P2-AA-12HGe-R, -0.893. Moreover, the interaction score in the assay with P2-AA-12HGe-T was 0.3; with P2-AA-12HGe-S (mean of both orientations), 1.19; with P2-AA-12HGe-A it was 1.68; with P2-AA-12HGe-H it was -0.986; in the assay with P2-AA-12HGe-M it was -0.0699.

Consider DEIAALEAANAALAAANAALAAEIAALEG [P1-AA-12HGe-A], for which the interaction score with P2-AA-12HGe-D (mean of both orientations) was -1.64; with P2-AA-12HGe-E it was 1.62; in the assay with P2-AA-12HGe-W, 0.0222; with P2-AA-12HGe-Q, 1.96; with P2-AA, 1.49; with P2-AA-12HGe-R, 0.662. For the same molecule, the interaction score is 1.71 in the assay with P2-AA-12HGe-T; -0.384 with P2-AA-12HGe-S; 1.6 with P2-AA-12HGe-A; 0.332 with P2-AA-12HGe-H; 1.4 in the assay with P2-AA-12HGe-M.

For DEIAALEATNAALTATNAALTAEIAALEG [P1-AA-12HGe-T], the interaction score with P2-AA-12HGe-D (mean of both orientations) is -1.6; with P2-AA-12HGe-E, 1.26; with P2-AA-12HGe-W it was -1.56; in the assay with P2-AA-12HGe-Q, 0.761; with P2-AA, -0.397; with P2-AA-12HGe-R, -0.61. In addition, the interaction score with P2-AA-12HGe-T was -0.824; with P2-AA-12HGe-S (mean of both orientations), -0.683; in the assay with P2-AA-12HGe-A, 0.941; with P2-AA-12HGe-H it was -1.51; in the assay with P2-AA-12HGe-M, -0.103.

Regarding DEIAALEADNAALDADNAALDAEIAALEG [P1-AA-12HGe-D], the interaction score is -1.75 with P2-AA-12HGe-D (mean of both orientations); -1.55 with P2-AA-12HGe-E; -2.14 with P2-AA-12HGe-W; -1.62 in the assay with P2-AA-12HGe-Q; 1.36 with P2-AA; 1.33 with P2-AA-12HGe-R. Moreover, the interaction score with P2-AA-12HGe-T is -1.52; with P2-AA-12HGe-S (mean of both orientations), -1.99; with P2-AA-12HGe-A it was -2.7; with P2-AA-12HGe-H, -1.41; in the assay with P2-AA-12HGe-M, -2.19.

Source of the values: article PMC10397247.
